Source: patent WO2021028359A1
Several values for one entry are separate records, joined by “and”; a condition that tells them apart may be missing. Identical values can stand only once.

Molecular target: CD20 on autologous CD19+CD20+ B cells (human) (UniProt P11836)
Experiment: cell-based or functional assay

CD20 on autologous CD19+CD20+ B cells (human), sequence (P11836 whole entry): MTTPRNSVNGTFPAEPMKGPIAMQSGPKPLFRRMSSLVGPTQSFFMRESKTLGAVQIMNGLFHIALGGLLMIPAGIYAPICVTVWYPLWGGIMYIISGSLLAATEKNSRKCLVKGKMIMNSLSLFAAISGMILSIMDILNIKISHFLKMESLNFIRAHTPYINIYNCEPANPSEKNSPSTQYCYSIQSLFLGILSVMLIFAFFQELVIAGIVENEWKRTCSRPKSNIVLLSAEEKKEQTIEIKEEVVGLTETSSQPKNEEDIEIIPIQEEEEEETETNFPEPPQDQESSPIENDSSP

For “CD20 CAR (CD8 leader, scFv directed against CD20 (B9E9), streptavidin tag, CD8 alpha linker and transmembrane domain, 4-1BB activation domain, CD3 zeta activation domain) (receptor)”, the fold of CD69 activation of Tregs, hFXP3-driven CAR, 24 h with autologous B cells was 1.9 fold and 1.8 fold and the fold of CD69 activation of Tregs, hPGK-driven CAR (TX028), 24 h with autologous B cells was 1.5 fold.
